This series is described as follows: soluble on expression in E. coli; label from the status in PepcDB or PDB records.
For the sequence “MIFINREREMKILEKEWENRPSFVVLYGRRRVGKTRLLREFSKAKKTFFFVFPEAIKEIQMREFKDAMADFLGDEFIRKLKTDNWFDLLKYLAEEVDDCLIVLDEFTYAVKSDRKILSDLQRVWDIILSEKKVMLVLSAPLLGMMWDEVLSHASPLYGRRTRSMHLKPLNYPDALNFFSDWEFGIRAYMLVGGIPSYLKLASRYNTIEDFLREEFLSDYGFFYDEPYVLLSEELRELRTYFSILIAIAEGNRRLERIANFVGLPARSIYPYVETLMRLGFIEKESPILGSRKVSLYRIKDPMLLTWLTLTYPQMAEISSGTAKLDKLYRVYSIRFEELAKEFLTLFRPIEFKTLGRWWYRGEEIDIVAIDEDIANLIEVKWMDLRKKEALRVLQELEEKAKKVNFSGKINLGIVARNVEKKEELRKEGYLVWDLEDILEAAGNSEREKLLEHHHHHH”, the “soluble on expression in E. coli” value is on record as “not soluble”.
Turning to “MGSDKIHHHHHHMGKAMDLPAETREAANNVIKMQRDADWQNDFKKNSDDGIKTQSLYNIRLIMEHDEMLKGLVAFDEFSEQIVKTPQAENSLFKKGFWNDGDDTLLRSYIEDHYNLLFSKENITDAVVTEARRKTINPVKARIEAVEWDGQPRAERYFINYLGAEDNHYTRTITKKWLTGLIARAYVPGVKFEIVPILEGSQGLGKSTAGKNLYPDKFNDSLKGMGKQKDDYQQLQGSWIIEVAELSAMKKTDIEGIKNFISAQSDTYRNSYGRYALPHPRKCVFIGTTNQTDYLKDATGERRFYPIKCGVNKAKLDVWHPDENYMLQVLAEAAYWFKNGEPLYLDQATMKEAKAYQMAAEAVDPMRDAIEAFLAMEVPTDWENMSTSLKQSYVSDYGHHSKWLQDQVSNERKLLNQTTTREIMEVVFHKTVDRYLTGRTNSEAKRIKLLMDNMDGWKSQRIRMNGQRLHGYMREV”, the “soluble on expression in E. coli” value is recorded as “not soluble”.
For the sequence “KGLMSKVKVITRGEATRLINKEDAVVVDLRQRDDFRKGHIAGAINLLPSDIKANNVGELEKHKSQPIIVVDGSGMQAQEPASALNKAGFEKVFVLKEGIAGWSGENLPLVRGK”, the “soluble on expression in E. coli” value is “not soluble”.
The entry for “NVKQQFFPPSNTPMFYVDMWMPEGTDIRQTIKQAEKVESYIRQQDDIDFVSVSIGQGLQRFALTYQPEKSYEAYAQFQVRTTDRDNMFKLLHKLDDNLAKTFDEPTFQFKLMEFGPSPASKIEARITGPDPKVLRELAVQVEDILHTDPGARNIRHDWRERTKELVPVFNESKARRLGISKEDLSSTLQMAFGGSTFGVLRDGTHTLPIMMRLPEAERVDFESLQNVKIWSPSLQTYIPVDQIIDGVELDWSEPLIQRRDRKRTLTVLADHDVLSDDTAASLFARVQPKVMALHIPEGYEITWGGEYESSKDAQE” is “not soluble”; for “MGSDKIHHHHHHMKIDRLISIIIVLLRRERVQAKELAEMFGVSVRTILRDVDTINLGGIPIITYQGVNGGISIAEGYRLDKSVLSAGDMATLISTLKGVAASIPDSRFDILAEKLKNPLSTSQLELLDLKSRQMIIDLSPWGTNEQLKGKITLLRQAIENYREIEFAYIDAAGTRSIRQVEPYALLLKGQSWYLFAWCLLRQDFRLFKLIRIKNLQLVNITYQPREVPMEQDYFENQWQETARPVELDLLFDKEMENVVEECFGGDIMRQDDGRIMVKVCLPENNWLYGYLLSFGGGMEVVNPPHIRSILAAIAEKIYKTYSS” it is “not soluble”; for “MAHLVITIGCEYGAKGNQIGKKVAKDLGIKFYDRDTVDEIIKEVGIPKDIMEKVEEGITIAGKGAEGDVRGSFSKYADLTERAIHVQKTIIRKLSDRESCVIIGRSADYILKEHKPILRIFIYSPDEVRIENVMKSHNLSEDDAKLFITEKDKRYHKRHMALTGSNRGDRHNRDMLIDSSLLGVDGTAELIESLARKVVENESKTEAGGDK” it is “not soluble”.
Take “MVRMYEERTATFHSMNEGVIAIDNRLVITIFNEKAKQIFEVQGDLIGKVIWEVLKDSRLPEIVERNKAVYNEEIRVSGKVIMSSRIPIVMKKKVIGAVAIFQDRTEAAKMAEELTGVRNFVEALRVQNHEHMNKLHTIAGLIQLGKSEKALQLAFQASTEQENVTEFLHRSIQNDAAAGLLLSKIRRGRELGIAVHIDENSSLQQFPEHVDQHDIVVLLGNLIENAFGSFETVQSEDKRIDISIEQTDDILAILIEDNGCGIEPTHMPRLYDKGFTVNKTGGTGYGLYLVKQIIDKGSGTIEVDSHAGQGTSFSIVFPMKGE”: the “soluble on expression in E. coli” value was “not soluble”.
As to “MSSKANHAKTVICGIINVTPDSFSDGGQFFALEQALQQARKLIAEGASMLDIGGESTRPGSSYVEIEEEIQRVVPVIKAIRKESDVLISIDTWKSQVAEAALAAGADLVNDITGLMGDEKMPHVVAEARAQVVIMFNPVMARPQHPSSLIFPHFGFGQAFTEEELADFETLPIEELMEAFFERALARAAEAGIAPENILLDPGIGFGLTKKENLLLLRDLDKLHQKGYPIFLGVSRKRFVINILEENGFEVNPETELGFRNRDTASAHVTSIAARQGVEVVRVHDVASHRMAVEIASAIRLADEAENLDLKQYK”, the “soluble on expression in E. coli” value was “soluble”.
Turning to “MISFNNVSKVYESGGQSVHAVEDVTLSVEKGEIFGIIGFSGAGKSTLLRLVNMLERPTAGTISIDDKDITSLSTKELRKLRQRIGMIFQSFNLFNSRTVFGNIAYPLKLAKVPKNEIKERVNELLKFVGLEDKANNYPEQLSGGQKQRVGIARALATSPDILICDEATSALDPETTTEILNLLKKVNREYNLTILLITHEMHVVKEICHRVAVMEKGKVIEEGKLFDVFTQPKTTTTQNFVRSVINDHLPESVLAKIQNGGQIYRLTFTGEETGQPVLSYIAKNYNVDVNVLYGNIIELQNVLFGNLLVELQGEQREIQKALQHLRLQVQLKEVEAHAS”, the “soluble on expression in E. coli” value was “not soluble”.
The entry for “MKLEVTPKAQQWFKEETGVQPETGIRFFGKIYGKTPVHDGFSIAMSVEAPDEPMIKENLDGITYFIEETDDWFFKGYDLIVDYDEKNDEPRYQFEANQEDLTK” is “not soluble”; for “MGSDKIHHHHHHMDKLLYIAMSGAKQNMQALSINANNLANAKTTGFKADLAQARSMQAFGEGLPSRVFSMTERASQNFDSGSILHTGRSLDMAIEGEGFFAVQAEDGQEAYTRGGHFRLTETGALETNDGELVIGENGPITLPLPINNIQISRDGTIMVQPAGAPSSVQEEVGRIKLVNPDTRLVDKGNDGLFRAKNGGQLIADVNVNVLGGALESSNVNPINEMTDMIALQRQFEMQLKMMKTAEEIDSSASSLLRAF” it is “not soluble”.
Turning to “GPFCGRARVHTDFTPSPYDTDSLKIKKGDIIDIICKTPMGMWTGMLNNKVGNFKFIYVDVISE”, the “soluble on expression in E. coli” value is listed as “soluble”.
Turning to “MGHHHHHHSHMSKESVTVAGIDCGTNSIRLKIARVDADGMHEVVPRILRVIRLGQDVDKTHRFADEALERAYVAAREFAGVIAEHPIDGLRFVATSATRDAENREEFEDEIERILGVRPEVIPGTEEADLSFLGATSVVNRDDLPAPYLVVDLGGGSTELVIGGDGVSAPTTQVQGAFSMNIGSVRMTERHLTNDPPTQTQIDEAVADVDEHIDEAFRTVDAGKARTIIGVSGTVTTMTALAMGLKEYDHTVVDGHRLSFEDAYAVDDKFLRMTRAERREYKTIHPGRIDVVGGGAVVWSRVLARVSEAAKADHGEAIDSFVASEHGLLDGIVLDYGRRLLAQ”, the “soluble on expression in E. coli” value is reported as “soluble”.
Take “MGQPPAEEAEQPGALAREFLAAMEPEPAPAPAPEEWLDILGNGLLRKKTLVPGPPGSSRPVKGQVVTVHLQTSLENGTRVQEEPELVFTLGDCDVIQALDLSVPLMDVGETAMVTADSKYCYGPQGSRSPYIPPHAALCLEVTLKTAVDLEHHHHHH”: the “soluble on expression in E. coli” value is on record as “soluble”.
As to “MGSDKIHHHHHHMVDTHAHLHFHQFDDDRNAVISSFEENNIEFVVNVGVNLEDSKKSLDLSKTSDRIFCSVGVHPHDAKEVPEDFIEHLEKFAKDEKVVAIGETGLDFFRNISPAEVQKRVFVEQIELAGKLNLPLVVHIRDAYSEAYEILRTESLPEKRGVIHAFSSDYEWAKKFIDLGFLLGIGGPVTYPKNEALREVVKRVGLEYIVLETDCPFLPPQPFRGKRNEPKYLKYVVETISQVLGVPEAKVDEATTENARRIFLEVKE”, the “soluble on expression in E. coli” value was “soluble”.
The entry for “MGSDKIHHHHHHMLGTLKKMRVQLDDAQQVQYQLVVGDELLTLNPLIGKQLTLTHTGNIFCCNCGKKSKKSYSQGHCFVCMQKLASCDMCIMKPETCHYDQGTCREPEWAQSHCFVPHYVYLANTSGVKVGITRHTQLPTRWIDQGATQGLPIFKVSTRQLSGLVEVELAKLVNDKTHWQAMLKGHADDIDLNVKAAELIPQIEAKLHEIGMQKGDYSIERLDETIQPIHYPIDTFPKKITSHNFDKNGVVSGILQGIKGQYLMFDTGVINIRKFSSYEISVEHD” is “not soluble”; for “AKTTIIAGSAEAPQGSDIQVPVKIENADKVGSINLILSYPNVLEVEDVLQGSLTQNSLFDYQVEGNQIKVGIADSNGISGDGSLFYVKFRVTGNEKAEQAENVKGKLRGLGQQLSEITLRNSHALTLQGIEIYDIDGNSVKVATINGTFRIVSQEEAHHHHHH” it is “soluble”; for “MGSDKIHHHHHHMQILLANPRGFCAGVDRAISIVERALELFGTPIYVRHEVVHNRYVVNGLRERGAIFIEQIEDVPDGAILIFSAHGVSQAVRNEAKNRDLTVFDATCPLVTKVHMEVARASKKGVEAILIGHAGHPEVEGTMGQYSNADGGMYLVESPDDVWQLQVKDEKNLCFMTQTTLSVDDTYAVIDALRERFPRIIGPRKDDICYATTNRQEAVRHLSDKADVVFVVGSKNSSNSNRLAELAQRAGKAAYLIDSADDIQESWLTGASYVGVTAGASAPDILVQQVIQRLKELGGKVAVEMQGREENIVFEVPKELRVEVKQID” it is “not soluble”.
The same measure for “SKVLLVFDFDNTIIDDNSDTWIIQCAPDKKLPIELQDSYQKGLWTEFMGRVFKYLRDEGVKEEELKRAVTSLPFTSGMIELLSFLRMNKDRFDCIIISDSNSIFIDWVLEAAAFHDVFDTVFTNPASFDSTGRLTVRNCHTHACTRCPKNLCKNTVLGEFIDKQLQKGVRYTRIVYIGDGGNDVCPVTFLKKNDVAMPREGYTLHRTLDKMSQNLEPMASSIVVWSSGMEIISHLQFLIQM”: “soluble”; for “MGSDKIHHHHHHMNKQPLAFRMRPKKIEDVVGQQHLIGKGKIIWRMVQAHRLSSMILYGEPGTGKTSIASAIAGSTELSFRILNAATDGKKELQEVAEEGKMSGSVILLLDEIHRLDKTKQDFLLPHLESGRIVLIGATTENPYLSVTPAIRSRTQIFHVEALSEKDIKTAINRALSDKENGLGNYNIKLDDRAKNHLSTATNGDLRSALNGLELAVLSTKAVGKEKEIHITLPIIEETIQRKSMSGDKNGDAHYDVISAFQKSIRGSDADAGIYYLGRILEAGDLTIAARRLLVIAYEDVGLANPNAAAHAVQAVTAALQLGLPEARIPLANAVIELALSPKSNSAYGAINSAIGDIEKGNTGDVPIHLKNTRNWGKTKNQ”: “not soluble”; for “MNRSDKWQQRVAQVAYRFNQQYQNQSLELPAEVQEMPIYREWISGILAGKIASPFWEMAQPQKNQHCLDIGCGVSFLIYPWRDWQAFFYGQDVSNVARDTLNSRGSQLNSKLFKGVELGAAHQLKYTLSYFDLAIATGFSCYFPLEYWTSVLQAVKRVLKPDGHFVFDILNAAHPQAEDWAVLETYLGAEVFLEPVTEWEKIINAAGAKVVGRQPGEFFDLYKLRLEHHHHHH”: “not soluble”.

(Values after the DeepSol protein solubility set.)
